{"source": "paper PMC6509287", "key": {"TOPBP1 [1]": {"target": "TOPBP1 (UniProt Q92547)", "test": "HA immunoprecipitation, western blot", "settings": "reference: wild type"}, "TOPBP1 [2]": {"target": "TOPBP1 (UniProt Q92547)", "test": "GST pull-down from nuclear extract", "settings": "reference: wild-type fragment; sites S196"}}, "data": [{"substance": "MDC1 (from UniProt Q14676) S196A", "values": [{"measurement": "binding against the reference", "setting": "TOPBP1 [1]; sites S196", "result": "lost"}]}, {"substance": "MDC1 109-330 (from UniProt Q14676) S196A", "values": [{"measurement": "binding against the reference", "setting": "TOPBP1 [2]", "result": "lost"}]}, {"substance": "MDC1 (from UniProt Q14676) S168A", "values": [{"measurement": "binding against the reference", "setting": "TOPBP1 [1]; sites S168", "result": "lost"}]}]}
